Measurements taken from the Human Domainome abundance scans (Beltran et al. 2025).

B1: Gamma-crystallin S, residues 96 to 176; numbered along this chain, P22914 (parent)
chain: IQIFEKGDFSGQMYETTEDCPSIMEQFHMREIHSCKVLEGVWIFYELPNYRGRQYLLDKKEYRKPIDWGAASPAVQSFRRI

Variants of: B1
Experiment: abundance fitness (aPCA) (normalised: wild type 0, dead -1); higher = more abundant; growth selection in yeast, the domain comes from the species named
Details: Homo sapiens

Abundance fitness, by site and new letter:
H33: Q -0.023; S 0.03; L -0.021; P 0.057; M 0.027; C 0.035; T 0.06; F 0.093; Y 0.02; V -0.013; K -0.12; G 0.012; R -0.047; N -0.01; E 0.054; W 0.062; I -0.002; A -0.047; D 0.077
E39: P -0.227; W -0.06; Y -0.045; R 0.054; Q -0.03; K 0; V 0.061; M -0.014; T -0.012; S 0.035; N 0.079; H -0.1; C -0.039; A 0.059; F -0.025; D -0.028
L38: W -0.024; G 0.02; C -0.067; H 0.043; F -0.017; Q -0.072; A 0.032; K -0.016; I -0.15; E -0.004; P 0.1; R 0.004; M -0.046; T 0.012; S -0.014; Y -0.079
I32: M -0.001; Q -0.809; L 0.025; S -0.087; F 0.09; E -0.348; R -1.01; K -0.755; T -0.027; P 0.051; C 0.015; V -0.029; N -0.223; W -0.193
S34: P -1.08; Y -0.646; Q -0.485; I -0.844; D -0.898; H -0.641; R -0.623; N -0.434; G 0.06; L -0.967; C -0.047; E -0.772; A -0.004; M -0.779; F -1.06; K -0.954; T -0.601
V41: A 0.063; P -0.051; L 0.023; G 0.105; M 0.041; K 0.052; D -0.01; F -0.001; C -0.112; I -0.101
K36: A 0.017; C -0.078; S 0.015; Q -0.002; W 0.15; P -1.19; R 0.022; T -0.019; D -0.019; M 0.024; Y 0.068; E -0.021; F 0.1; H -0.013; N -0.037; I -0.045; G -0.171
E31: N -0.008; Y 0.116; M -0.039; W 0.084; Q 0.02; L 0.056; T 0.106; V 0.072; S -0.034; P -0.056
C35: E -0.952; K -1.01; Y -0.217; F 0.133; P -0.788; I -0.039; Q -0.803; G 0.048; A -0.027; W -0.006; V 0.021; N -0.529; R -0.987; M 0.111; L 0.102; H -0.769; S 0.052; T 0.074
G40: W -0.312; V -1.06; F -0.261; M -0.464; R -0.322; P -0.028; D -0.012; T -0.251; A -0.051; K -0.337; L -0.739; I -0.759; H -0.252; Y -0.137; N -0.14; C -0.158; S -0.051
V37: Q -0.105; G -0.075; C 0.075; K 0.027; Y -0.769; M 0.049; I -0.142; D -0.166; N 0.087; R 0.042; T 0.004; L 0.023; A 0.081
